# Results taken from the nanobody polyreactivity screen of Harvey et al. (2022).
# Assay: yeast display, Sf9 membrane polyspecificity reagent, FACS + sequencing; frameworks hold sequencing errors
# Procedure, shortened: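 After 36–48 hours of galactose induction, yeast (Saccharomyces cerevisiae BJ5465) displaying a synthetic nanobody library were stained at 4 °C for 1 hour with 10% biotinylated, detergent-solubilized Sf9 membrane reagent. Streptavidin microbeads enriched the stained cells before FACS sorting into low and high (top ~1%) gates on anti-HA and streptavidin fluorescence. Each clone's polyreactivity label reflects its gate of origin.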
sequence,measurement,value
QVQLVESGGGLVQAGGSLRLSCAATGRNFVYNAMGWYRQAPGKERELVAAITWGGGSTYYADSVKGRFTISRDYAKNTVYLQMNSLKPEDTAVYYCAARGGSYPQDHSPYYEYDYWGQGTQVTVSS,polyreactivity (PSR sort gate),low polyreactivity
QVQLVESGGGLVQAGGSLRLSCAATGRTFRYYAMGWYRQAPGKERELVAAISSGGSTNYADSVKGRFTISRDNAKNTVYLQMNSLKPEDTAVYYCAALWSGNKFNYWGQGTQVTVSS,polyreactivity (PSR sort gate),low polyreactivity
QVQLVESGGGLVQAGGSLRLSCAATGRTFSEYVMGWYRQAPGKERELVAAISDRGTRTYYSDSVKGRFTISRDNAKNNVYLPMNSLKPEDTAVYYCYAGLTYNHDPYDYWGQGTQVTVSS,polyreactivity (PSR sort gate),high polyreactivity
QVQLVESGGGLVQAGGSLRLSCAATGRTFSIYAMGWYRQAPGKERELVARIRGGGSTNYADSVKGRFTISRDNAKNTVYLQMNSLKPEDTAVYYCATVYWRYGAHSYRYYYWGQGTQVTVSS,polyreactivity (PSR sort gate),high polyreactivity
QVQLVESGGGLVQAGGSLRLSCAATGRTFTYYALGGYRQAPGKQRELVAAISTSGGSTYYADSVKGRFTISRDNAKNTVYLQMNSLKPEDTAVYYCAASPYLRFLYGGFGYWGLGTQVTVSS,polyreactivity (PSR sort gate),high polyreactivity
QVQLVESGGGLVQAGGSLRLSCAATGRTFYQYAKGWSRQAPGKERELVAAISRRGGSTYYADSVKGRFTISRDNAKNTVYLQMNSLKPEDTAVYYCAAQRQYGKFDYWGQGTQVTVSS,polyreactivity (PSR sort gate),high polyreactivity
QVQLVESGGGLVQAGGSLRLSCAATGSIFDYYAMGWYRQAPGKERELVAAISLSGGITYYADSVKGRFTISRDNAKNTVYLQMNSLKPEDTEVYYCAADAIDVLYEYDRYDRRYEYWGQGTQVTVSS,polyreactivity (PSR sort gate),low polyreactivity
QVQLVESGGGLVQAGGSLRLSCAATGSIFGDNAMGWYRQAPGKARELVAAITSSGGSTYYADSVKGRFTISRDNAKNTVYLQMNSLKPEDTAVYYCNADFGYGWYLRYDYWGQGSQVTVSS,polyreactivity (PSR sort gate),high polyreactivity
QVQLVESGGGLVQAGGSLRLSCAATGSIFPPYGMGWYRRAPGKERELVAVITRSGGSTYYADSVKGRFTISRDNAKNTVYLQMNSLKPEDTAVYYCNVDSTTTFVYVVVSVVYEYDYWGQGTQVTVSS,polyreactivity (PSR sort gate),low polyreactivity
QVQLVESGGGLVQAGGSLRLSCAATGSIFSFYAMGWYRQAPGKERELVAGIRWRGGTSTFYADSVKGRFTISRDKAKNTVYLHMNSLKPEDTAVYYCAAKRRTGGNGYWGQGTQVTVSS,polyreactivity (PSR sort gate),high polyreactivity
QVQLVESGGGLVQAGGSLRLSCAATGSIFSSNAMGWYRQAPGKERELVAAIDYSGGRTYYADSVKGRFTISRDYEKNTVYLQMNSLKPEDTAVYYCAKLIPVHSRYDFWGQGTQVTVSS,polyreactivity (PSR sort gate),low polyreactivity
QVQLVESGGGLVQAGGSLRLSCAATGSIFVLYAMGWYRQAPGKERALVAAISKSTGSTYYADSVKGRFTISRDNAKNTVYLQMNSLKPEDTAVYYCAARGRQYRYYDLDYWGQGTQVTVSS,polyreactivity (PSR sort gate),low polyreactivity
QVQLVESGGGLVQAGGSLRLSCAATGSIFYFYTMGWYRQAPGKERELVAAIDWSSGSTYYADSVKGRFTISRDNAKNTVYLQMNSLKPEDTAVYYCNARDYWTGRHDYWGQGTQVTVSS,polyreactivity (PSR sort gate),low polyreactivity
QVQLVESGGGLVQAGGSLRLSCAATGSIIQWNAMGWYRQAPGKERELVAAISWSGTRTYFADSVKGRFTISRDNAKNTVYLQMNSLKPEDTAVYYCAFRGGKPTYRYDYWGQGTQVTVSS,polyreactivity (PSR sort gate),high polyreactivity
QVQLVESGGGLVQAGGSLRLSCAATGSISGYYAMGWYRQAPGKERELVASIRYTGARTYYADSVKGRFTISRDNAKNTVYLQMNSLKPEDTAVYACAADVKRDRVWGGDYWGQGTQVTVSS,polyreactivity (PSR sort gate),low polyreactivity
QVQLVESGGGLVQAGGSLRLSCAATGSLFLPYGMGWYSQAPGKERELVAAFSRGGGSTYYADSVKGRFTISRDNAKNTVYLQMNSLKPEDTAVYYCAVDNLKSRAQSLDGFDYWGQGTQVTVSS,polyreactivity (PSR sort gate),high polyreactivity
QVQLVESGGGLVQAGGSLRLSCAATGSTFRPYAMGWYRQAPGKERELVAAITTGGSTNYADSVKGRFTISRDNAKNTVYLQMNSLKPEDTAVYYCNADYDVLNWGYYDWGYDYWGQGTQVTVSS,polyreactivity (PSR sort gate),low polyreactivity
QVQLVESGGGLVQAGGSLRLSCAATGSTFTAYAMAWYRQAPGKESELVAAIRRIGGDTYYADSVKGRFTISRDNAKNTVYLQMNSLKPEDSAVYYCAAFRWRSPQYWYHSMDHWGQGSQVTVSS,polyreactivity (PSR sort gate),low polyreactivity
QVQLVESGGGLVQAGGSLRLSCAATGSTFTAYAMSWYRQAPGKESELVAAIRRIGGDTYYADSVKGLFTISRDNAKNTVYLQMNSLKPEDTAVYYCAAFRWRSLQYWYHSMDLWGQGSQVTVSS,polyreactivity (PSR sort gate),low polyreactivity
QVQLVESGGGLVQAGGSLRLSCAATGSTFTFNAMGWYRQAPGKEREFVAAITASGGRTYYADSVKGRFTISRDNAKNTVYLQMNSLKPEDTAVYYCAADACLLGPGDFNYWGQGTQVTVSS,polyreactivity (PSR sort gate),low polyreactivity
QVQLVESGGGLVQAGGSLRLSCAATGSTYKYYAMGWYRQAPGKERELVAAITKSGGRTYYSDSVKGRLTISRDNAKNTVYLQMNSLKPEDTAVYYCATVTSHVDDEFDYWGQGTQVTVSS,polyreactivity (PSR sort gate),high polyreactivity
QVQLVESGGGLVQAGGSLRLSCAATGTFRRYAMGWYRQAPGKERELVAAITRNGGSTYYADSVKGRFTISRDNAKNTVYLQMNSLKPEDTAVYYCAAGLFWGGFRQWTDHHFDCDYYWGQGTQVTVSS,polyreactivity (PSR sort gate),high polyreactivity
QVQLVESGGGLVQAGGSLRLSCAATGYTFFFYAMGWYRQAPGKEREFVAASTWRGDSTYYADSVKGRFTISRDNAKNTVYLQMNSLKPEDTAVYYCAADPGFTWSRRMDYWGQGTQVTVSS,polyreactivity (PSR sort gate),low polyreactivity
QVQLVESGGGLVQAGGSLRLSCAATRSTIQANTIGWYRQAPGKERALVAAISIRGANTYYADSVKGRLTISRDNAKNTFYLQMNSLKREDSAVYYCATRVGKYSLSLDYWGQGTQVTVSS,polyreactivity (PSR sort gate),high polyreactivity
QVQLVESGGGLVQAGGSLRLSCAAWSIFYLNAMGWYRQAHGKERELVAAISSAGSTYYADSVKGRFTISRDNAKKTVYLHMNSLKPEDTAVYYCAAYWYDSPGVTEIWYDYWGQGTQVTVSS,polyreactivity (PSR sort gate),low polyreactivity
QVQLVESGGGLVQAGGSLRLSCAAWSIFYLNAMGWYRQAPGKERELVAAISSAGSTYYADSVKGRFTISRDNAKNTVYLQLNSLKPEDTAVYYCAAYWYDSPGVTEIWYDYWGQGTQVTVSS,polyreactivity (PSR sort gate),low polyreactivity
QVQLVESGGGLVQAGGSLRLSCAAYGFTFWRNAMGWYIQAPGKERELVAAISASGGSTYYASSVKGRFTISRDNAKNTVYLQMNSLKPEDTAVYYCNAGEWAISEWGWVVDYDYWGQGTQVTVSS,polyreactivity (PSR sort gate),low polyreactivity
QVQLVESGGGLVQAGGSLRLSCAAYGFTFWWYAMGWYRQAPGNERELVAAISASGASTYYADSVKGRFTISRDNAKNTVYLQMNSLKPEDTAVYYCAVVGLLRLYYWGQGTQVTVSS,polyreactivity (PSR sort gate),high polyreactivity
QVQLVESGGGLVQAGGSLRLSCAAYGIIFRYYAMGWYRQAPGKERELVAAITASGGSTYYADSVKGRFTISRDHAKNTVYLQMNSLKPEDTAVYFGAAGSYFQHLIGYSTVSYGRNYWGQGTQVTVSS,polyreactivity (PSR sort gate),high polyreactivity
QVQLVESGGGLVQAGGSLRLSCAAYGITFAPYAMGWYRQAPGKERELVAGINTGGSTYYADSVKGRFTISRDNAKNTVYLQMNSLKPEDTAVYYCATESYPADHDIPGSDYWGQGTQVTVSS,polyreactivity (PSR sort gate),low polyreactivity
QVQLVESGGGLVQAGGSLRLSCAAYGITFRAYAMGWYRQAPGKEREFVASISGSGGSTYSADSVKGRFTISRDNAKNTVYFQMNSLKPEDTAVYYCATRRWGLATPTRYDYWGQGTQVTVSS,polyreactivity (PSR sort gate),high polyreactivity
